# Earlier results in paper PMC11264262.
# Tests used:
# Glu73 = Glu73 (UniProt position 107, IFSNREGKLPG); conditions: folded protein
# His200 = His200 (UniProt position 200, RKGTVHDTALT)
Substance,pKa (Glu73),pKa (His200)
Barnase (Bacillus amyloliquefaciens (inferred; organism not stated in the article)),2.1,
"Homoprotocatechuate 2,3-dioxygenase (HPCD) (Brevibacterium fuscum (inferred; organism not stated in the article))",,ca. 7.65
